Values of other authors, collected in publication PMC8349851.

Biological target: PI3K p85 regulatory subunit SH3 (Homo sapiens) (UniProt P27986)
Sequence of UniProt P27986 (P27986 1-82): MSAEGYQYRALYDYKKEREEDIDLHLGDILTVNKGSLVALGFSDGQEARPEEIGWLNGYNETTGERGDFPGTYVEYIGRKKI

Kd: 0.05 µM
Substance: obscurin PH (from UniProt Q5VST9)
